Results as given in the nanobody polyreactivity screen of Harvey et al. (2022).

assay: yeast display, Sf9 membrane polyspecificity reagent, FACS + sequencing; frameworks hold sequencing errors
How it was run: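 In a synthetic yeast display library (Saccharomyces cerevisiae BJ5465), nanobody expression was induced with galactose for 36–48 hours. FACS gates were set low and high (top ~1%) using anti-HA fluorescence for expression and streptavidin fluorescence for binding of the Sf9 membrane reagent. Each polyreactivity label is drawn from the gate of origin.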

Row | Sequence | polyreactivity (PSR sort gate)
1 | QVQLVESGGGLVQAGGSLRLSCAASGSIIYIYAMGWYRQAPGKERELVAAISSGDRTNYADSVKGRFTISRDNAKNTVYLQMNSLKPEDTAVYYCAAERKNKYDYWGQGTQVTVSS | high polyreactivity
2 | QVQLVESGGGLVQAGGSLRLSCAASGRIFIWYGMGCYRQAPGKERELVADISSTGSTNYADSVKGRFTISRDNAKNTVYLQMNSLKPEDTAVYYCAADPETPYYTTYDYDYWGQGTQVTVSS | low polyreactivity
3 | QVQLVESGGGLVQAGGSLRLSCAASGSIFPSYAMGWYRQAPGKDRELVATLGRGGTTNYADSVKGRFTLSRDNAKNTVYIQMNSLKPEDTAVYYCNAERIWRYKDGYDYWGQGTQVTVSS | high polyreactivity
4 | QVQLVESRGGLVQAGGSLRLSCAASGITFILYAMGCYRQAAWKERELVASITSGGSTDYADSVKERFTISGDNAKNTVYLQMNSLKPEDTAVYYCNAAARGSSFDYWGQGTQVTVSS | low polyreactivity
5 | QVQLVETGGGLVQAGGSLRLSCAASGLIFRNNVMGWYRQAPGKERELVAAIRESGGRTYYADSVKGRFTISRDNAKNTVYLQMNSLKPEDTAVYYCAADSRVGFGRLYGYWGQGTQVTVSS | high polyreactivity
6 | QVQLVESGGGLVQAGGSLRLSCAASGIFLGYAMGWYRQAPGKERELVAAITSGDSTYYADSVKGRLTISRDNAKNTVYLQMNSLKPEDTAVYYCAKTRYSWPRVWYNYWGQGTQVTVSS | low polyreactivity
7 | QVQLVESGGGLVQAGGSLRLSCAASGFTFRRYAMGWYRQAPGKERVLVAAITRGSSTYYADSVKGRFTISRDNEKNTVYLQMNSLKPEDTAVYYCAAAGFWSRPSDYWGQGTQVTVSS | low polyreactivity
8 | QVQIEESGGGLVQAGGSLRLSCAASGRTFLHKDMGWYRPAPGKERELVAAINVSDGSTYYADSVKGRFTISRDNAKNTVYLQMNSLKPEDTAVYYCAKASYIIFRFEYRSGYDYWGQGTQVTVSS | low polyreactivity
9 | QVQLVESGGALVHAGGSLRLSCAASGSIFYQYDMGWYRQAPLKERELVAAISRSGTRTYYEDSVKGRFTISRDNAKNTVYLKMNSLKPEDTAVYYCARRYRSGYGYWGQGTQVTVSS | high polyreactivity
10 | QVQLVESGGGLVQAGGSLRLSCAASGSTFGDNAMGWYRQAPGKERELVARISSGGNTYYADSVKGRFTISRDNAKNTVYLQMNSLKPEFTAVYYCAADIIVRYKKFPYYYWGQGTQVNVSS | high polyreactivity
11 | QVQLVESGGGLVQAGGSLRLSCAASGSTFTTYAMRWYRQAPGKERELLAAITRGGGRTYYSDSVKGRFTISRDYAKNTVYLLMNSLKPEDTAVYYCNAGRSNSPCGRPYDYWGQGTQVTVSS | high polyreactivity
12 | QVQLEESGGGLVQAGGSLRLSCAASGFNFRKNVMGWYRPAPGKERELVAAISAPGGSTYYAHSVKGRFTISRDNGKNTGYLQMYCLKPEDPAVYFCKTDGYLYQYDYWGQGTQVTVSS | high polyreactivity
13 | QVQLVESGGGLVQAGGSLRLSCAASGSILDGYAMGWYIQAPGKARELVAAITTGGGSTYYADSVKGRFTISRDNAKNTVYLQMNSLKPEDTAVYYCAAYRKPGSWTWWVRGYGYWVQGTQVTVSS | low polyreactivity
14 | QVQLLESGGGLVQSGGSLRVSCAASGSTFYAYSMGWYRQAPGKERELVAALDSGGSTYADSVKGRFPISRANAKHTVYLQMNSLKPEETAVYYCAADLITRSDYWWTGWIWEYDYWGQGTQVTVSS | low polyreactivity
15 | QVQLVESGRGLVQAGGILRLSCAASGFIFYYYAMVWYRQAPGKERELVAAISQRGGRTYYAESVKGSFTISRDYAKNTVYLQMNSLKTEDTAVYYCAARPAYRSSYYWGQGTQVTVSS | high polyreactivity
16 | QVQLVESGGGLVQAGGSLRLSCAASGFIFYYYAMGWYRQAPGKERELVAAITQGGGSTYYADSVKGRFTISRDNAKNTVYLQMNSLKPEDTAVYYCAAVKRVYAHSRAFSSDFYYWGQGTQVTVSS | high polyreactivity
17 | QVQLVESGGGLVQAGGSLRLSCAASGFIFGAYAMGWYRQAPGKERELVAAITRSGGNTYYADSVKGRFTISRDNAKNTVYLQMNSLKPEDTAVYYCNVVGVYHYEDYYYWGQGTQVTVSS | high polyreactivity
18 | QVQLVESGGGLVQAGGSLRLSCAASGFIFYHYAMGWYRQAPGKERELVAAISWNGGRTYYADSVKGRFTISRDNAKNTVYLQMNSLKPEDTAVYYCAAPVLTSDYTLDSYYWGQGTQVTVSS | high polyreactivity
19 | QVQLVESGGGLFQAGVSLRLSCAASGSTFDYYAMGWYRQPPAKERELVAAIRYRGGRTYYADSVKWRFTISRDNAKNTVYLQLNSLKPEDTAVYYCAALTIQSSKTYDYWGQGTQVTVSS | low polyreactivity
20 | QVQHVESGGGLVQAGGSLRLSFAASGSTFAWYPMGWYRQAPGKERELVAAITRDGSTYYADSVKGRFTISRDNAKNTVYLQMNSLKPEDTAVYYCAADLSYWRGGHSRYYWGQGTQVTVSS | low polyreactivity
21 | QVQLVESGGGLVQAGGSLRLSCAASGNIFSYYAMGWYRQAPGKERELVAAIRSSGVGTRYADSVKGRFTISRDNAKNTVYLQINSLKPEDTAVYYCAATGYTGYSRYYYWGQGTQVTVSS | high polyreactivity

Row | Sequence | polyreactivity (PSR sort gate)
22 | QVQLVESGGGLVQAGGSLRLSCAASGITFGKNAMGWYRQAPGKESEFVAAISWGGGRTYYADSVKGRFTISRDNAKNTVYLQMNSLKPEDTAVYYCNVGPRAGWYRSNYDYWGQGTQVTVSS | low polyreactivity
23 | QVQLVESGGGLVQAGGRLRLSCAASGFTFNVNALGGYRPAPGKERELVATITWSDGSTRYADSVKGRFTISRDNAKNTVYLQMNSLKPEDTAVYYCATRWSYPYSYRYYYWGQGTQVTVSS | low polyreactivity
24 | QVQLVESGGGLVQAGGSLRLSCAASGSTFYGNAMGWYRQAPGKERELVAAITWGDASTYYADSVKGRFTISRDNAKNTVYLQMNSLKPEDTAVYYCAADFYYAYYWGQGTQVTVSS | low polyreactivity
25 | QVQLVESGGGLVQAGGSLRLSCAASGYTFEAYAMGWYRQAPGKERELVAAINYSGGSTYADSVKGRFTISRDNAKNTVYLQMNSLKPEDTAVYYCAAYGTKRYPYDYWGQGTQVTVSS | low polyreactivity
26 | QVQLVESGGGLVQAGGSLRLSCAASGRIFGYYARGWYRQAPGKEREFVAGITQRTDSTYYADSVKGRFTISRDNAKNTVYLQMNSLKPEDTAVYYCAARGYGGYHWGYYWGQGTQVTVSS | high polyreactivity
27 | QVQLVESGGGLVQAGGSLRLSCAASGRIFYPNAMGWYRQARGKERELVAGISSGGGRTYYADSVKGRFTISRDNAKNTVYLQMNSLKPEDTAVYYCATVGRGYDERHNYWGQGTQVTVSS | high polyreactivity
28 | QFQLVESGGGLVQAGGSLRLSCAASGSTFGYYAMGWYSQAPGKERELVAAITSTGRTKYADSVKGRFTISRDNAKNSVYLQMNSLKPEDTAVYYCAADIWGQGTQVTVSS | high polyreactivity
29 | QVQLVESGGGLVQAGGSLRLSCAASGSIIAGYTMGWYRQAPGKERELVAGIRRGGSTNYADSVKGRFTISRDNAKNTVYLQMNSLKPEDTAVYYCNAQRTRSYVLRTFDYWGQGTQVTVSS | high polyreactivity
30 | QVHLVESGGGLVQAGGSLRLSCAASGSILSINGRGWSRQAPGKERELVATIDGSDGSTFYADSVKGRFTISRDNAKNTVYLQMNSLKPEDTAVYYCAAENFWQTKEYDYWGQGTQVTVSS | low polyreactivity
31 | QVQLVESGGGLVQAGCSVRLSCAASGSFFVLNSMGWYRQAPGKERELVAAIDESGGGTYYADSVKGRFTISRDNAKNTVYLQMNSLKPEDTAVYYCAADTLAPRAYDYWGQGTQVTVSS | low polyreactivity
32 | QVQLVESRGALVQAGASLRLSCAASALTFVKNVMGWYRQAPGKERELVAAISSGGSTYADSVKGRFTISRDNAKNTVYLQMNSLKPEDTAVYYCNADFRARNYHYYPRRFKYYYWGQGTQVTVSS | high polyreactivity
33 | QVQLVESGGGLVQAGGSLRLSCAASGRTFKTYVMGWYRQAPGKERELVAGITSGGGSTYYADSVKGRFTISRDNAKITVYLQMNSLKPEDTAVYYCAAVSKDGFWVSYYYWGQGTQVTVSS | high polyreactivity
34 | QVQLVESGGVLVQAGGSLRLSCADSGSTFFFYAMGWYRHAPGKERELLAAISSTGRTYYADSVKGRFTISRDNAKNSVYLQMNSLKPEETAVYYCAARIYSGYSYWGQGTQVTVSS | high polyreactivity
35 | QVQLVESGGGLVQAGGSLRLSCAASGNTFKYYAMGWYRQAPGKERELVAAISYSGGSTYYADSVKGRFTISRDNAKNTVYFQMNSLKPEDTAVYYCAADLDSERYFLGQGTQVTVSS | low polyreactivity
36 | QVQLVESGGGLVQAGGSLRLSCAASGFIFDYYAMGWYRQAPGKEWELVAGITRDGSTNYADSVKGRFTISRDNAKNTVYLQMNSLKPEDTAVYYCAAGPPRTRYRNARFDYWGQGTQVTVSS | high polyreactivity
37 | QVQLVESGGVLVQAGGSLRLSCAASGFIFKYYAMGWYRQATGKERDLVAAISSSGGRKYYADSVKGRFTISRDNAKNTVYLHMNRLKPEDTAVYYCNKATFVTYYFLGYDYWGQGTQVTVSS | high polyreactivity
38 | QVQLVESGGGLLQAGGSLRLSCAASGFTFQYNAMGWYRQAPGKERELVAAISRSGTSTYYADSVKGRFTISRDNAKNTVYLQMNSLKPEDTGVYYCNAYYLSGSVYWTGDIYDYWGQGTQVTVSS | high polyreactivity
39 | QVQLVESGGGLVQAGGSLRLSCADSGFIFRYNTMGWYRQAPGKERELVAAITSGDSTYYADSVKGRFTITRDNAKNTVYLQMNSLKPEDTEVYYCAARPYSGRNKYDYWGQGTQVTVSS | high polyreactivity
40 | QVQHVESGGGLVQAGGSLRLSCAASGLTFYRYAMGWNRQAPGKERELVAAITSGGSTYYADSVKGRFTISRDNAKNTVYLQMNSLKPEDTAVYYCARQYGYQPERYGYWGQGTQVTVSS | low polyreactivity
41 | QVQLVESGGGLVQAGGSLRLSCAASGSTFEYYAMGWYRQAPGKERELVAAITRRGGSTYYADSVKGRFTISRDNAKNTVYLQMNSLKPEDTAVYYCAAVPTQKSPRTHDFWGQGTQVTVSS | low polyreactivity
